Results published in patent US8883967B2, “Branched amphipathic oligo-peptides that self-assemble into vesicles” (Kansas State University Research Foundation, priority 2009, dated 2014).
No end group written: not given here.

Experiments:
[1] = Confocal microscopy of vesicles in 5,6-carboxyfluorescein solution; type: physicochemical; settings: single peptide alone
Method: About 25 μL of the sample was then mounted on a glass slide and covered with a coverslip and sealed. The slides were allowed to sit for 48-72 hours before pictures were taken using a confocal microscope. Upon sitting in the unbuffered 5,6-carboxyfluorescein solution for 48 hours, larger spherical entities than observed with TEM are formed, which can be seen with the light microscope. Specifically, in FIG. 7, peptides bis(h5)-K-K4 and bis(h9)-K-K4 at a 1:1 molar ratio when added to DDI water form larger vesicles on the order of 2-10 μm in diameter. […] The vesicles in this figure are large enough to have fluorescently-labeled peptide aggregates trapped within the vesicles.

[2] = linear peptides, low and neutral pH; cited from earlier work
[3] = Sedimentation analysis (analytical ultracentrifugation), N-acetyl capped peptides; type: physicochemical; settings: 1 mM, DDI water, pH 7, 40,000 rpm, 20° C.
Method: In this procedure, N-acetyl capped peptides were prepared using the protocol described in Example 1 above and subjected to analytical ultracentrifugation for sedimentation analysis. Three different samples were prepared from bis(h5)-K-K4 alone, bis(h9)-K-K4 alone, and a 1:1 molar ratio mixture of the two peptides, each with a final peptide concentration of 1 mM dissolved in DDI water and pH adjusted to 7 using a dilute solution of NaOH. For the analyses, 350 μL of each sample was loaded into a Beckman XL-I Analytical Ultracentrifuge cell and spun at 40,000 rpm for 3 hours at 20° C., with data collected using interference optics. The raw data was then processed using DCDT+2.2.1 software to obtain g(s*) distribution. Theoretical distribution (sum of individual peptide distribution) was obtained using OriginLab v. 7.0 software.

[4] = tested on: Human Lens Epithelial (HLE) cells; experiment: Uptake of 5,6-carboxyfluorescein-loaded peptide vesicles by cells, fluorescence microscopy; type: cell-based; settings: 12 hours of incubation, 37° C.
Method: Human Lens Epithelial (HLE) cells were obtained from Dr. Dolores Takemoto's lab (Kansas State University). These adherent cells were grown to roughly 80% confluence on coverslips placed in 12 well plates with 1 ml Dulbecco's Modified Eagle Medium (DMEM), Stock solutions of bis(h9)-K-K4 and bis(h5)-K-K4 dissolved in DDI water were mixed together using the protocol described in Example 4 to achieve a final concentration of 0.025 mM of each peptide in the mixture and 600 μL final volume. The sample was then dried by spinning in a speed vacuum for about 3 hours until almost all of the solvent was removed. The dried sample was then rehydrated with a 0.5 mM solution of the fluorescent dye 5,6-carboxyfluorescein (MW=376.3 Da) dissolved in DDI water. The pH of the sample was adjusted to 7.4 using a dilute solution of NaOH. Next, 500 μL of the DMEM was replaced with the peptide vesicle solution loaded with 5,6-carboxyfluorescein. The cells were then allowed to grow at 37° C. under 5% CO2. At 4 hours and 12 hours after incubation with dye-loaded vesicles, the cells were washed twice with phosphate buffered saline (PBS) and fixed using 0.4% paraformaldehyde. The fixed cells were then mounted on a glass slide and pictures were taken using a fluorescence microscope. […]

Substance: bis(h9)-K-K4: Branched amphipathic peptide: two FLIVIGSII (SEQ ID NO: 3) tails on a branch lysine, KKKK C-terminal carboxyamide
- ability of the peptide by itself to form vesicle structures [1]: able to form these vesicle-like structures
- stability of vesicle-like structures formed by the peptide alone [1]: somewhat unstable and rapidly fuse to produce the larger structures

Substance: KKKFLIVIKKK [Linear FLIVI flanked by three lysine groups, from earlier studies (US 2009/0105449)]
- vesicle formation [2]: do not form vesicles

Substance: N-acetyl capped bis(h9)-K-K4: bis(h9)-K-K4 with the N-termini of both hydrophobic tails capped with an acetyl group (chain 1 Ac-FLIVIGSIIKKKKK-NH2; chain 2 Ac-FLIVIGSII; also: branched: chain 2 tail attached to branch lysine K10 of chain 1, linkage amine not given here)
- apparent S value [3]: ~10 S

Substance: bis(h5)-K-K4: Branched amphipathic peptide: two FLIVI (SEQ ID NO: 4) tails on a branch lysine, KKKK C-terminal carboxyamide
- ability of the peptide by itself to form vesicle structures [1]: unable to form these structures

Substance: N-acetyl capped bis(h5)-K-K4: bis(h5)-K-K4 with the N-termini of both hydrophobic tails capped with an acetyl group (chain 1 Ac-FLIVIKKKKK-NH2; chain 2 Ac-FLIVI; also: branched: chain 2 tail attached to branch lysine K6 of chain 1, linkage amine not given here)
- apparent S value [3]: around 6 S

Substance: KKKFLIVIGSIIKKK [Linear … flanked by three lysine groups, from earlier studies (US 2009/0105449)]
- vesicle formation [2]: do not form vesicles

Substance: 5,6-carboxyfluorescein [free fluorescent dye]
- cellular uptake of dye [4]: hardly any uptake of the dye
